Assay results as given in patent US20230212319A1, “NOVEL ANTIGEN BINDING DOMAINS AND SYNTHETIC ANTIGEN RECEPTORS INCORPORATING THE SAME” (University of Southern California, priority 2020, published 2023).

B1: 21873 (protein)
chain: MALPVTALLLPLALLLHAARPDIQMTQSPSSLSASVGDRVTITCRASQDISSYLNWYQQKPGKAPKLLIYYTSRLHSGVPSRFSGSGSGTDFTLTISSLQPEDFATYYCQQGNTLPYTFGQGTKVEIKRLEDLKNVFPPEVAVFEPSEAEISHTQKATLVCLATGFYPDHVELSWWVNGKEVHSGVCTDPQPLKEQPALNDSRYCLSSRLRVSATFWQNPRNHFRCQVQFYGLSENDEWTQDRAKPVTQIVSAEAWGRADCGFTSESYQQGVLSATILYEILLGKATLYAVLVSALVLMAMVKRKDSRGRAKRSGSGATNFSLLKQAGDVEENPGPTSMDWIWRILFLVGAATGAHSFEVQLVESGGGLVQPGGSLRLSCAASGYTFSDYFMSWVRQAPGKGLEWVATISNGGTYTYYPDSVKGRFTISRDNSKNTLYLQMNSLRAEDTAVYYCARFDGYIFDYWGQGTLVTVSSTRIQNPDPAVYQLRDSKSSDKSVCLFTDFDSQTNVSQSKDSDVYITDKCVLDMRSMDFKSNSAVAWSNKSDFACANAFNNSIIPEDTFFPSPESSCDVKLVEKSFETDTNLNFQNLSVIGFRILLLKVAGFNLLMTLRLWSSRAKRSGSGVKQTLNFDLLKLAGDVESNPGPSRGHMTEYKPTVRLATRDDVPRAVRTLAAAFADYPATRHTVDPDRHIERVTELQELFLTRVGLDIGKVWVADDGAAVAVWTTPESVEAGAVFAEIGPRMAELSGSRLAAQQQMEGLLAPHRPKEPAWFLATVGVSPDHQGKGLGSAVVLPGVEAAERAGVPAFLETSAPRNLPFYERLGFTVTADVEVPEGPRTWCMTRKPGA
B2: 22128 (protein)
chain: MALPVTALLLPLALLLHAARPQVQLVESGGGLVQPGGSLRLSCAASGFTFTNHAMSWVRQAPGKGLELVSSISGNGRTTYYADSVKGRFTISRDISKNTLDLQMNSLRAEDTAVYYCAKDGGETLVDSRGQGTLVTVSSLEGGGGSGGGGSIEGGGGSGGGGSKVQLLESGGGLVQPGGSLRLSCAASGFIFSSYAMSWVRQAPGKGQEWVSGVSGTGVNTYYADSVKGRFTISRDNSKNTLYLQMNSLRAEDTAVYYCASGKGWDSGSWYEDYRGQGTLVTVSSGTGGGGSGGGGSGGGGSEFDIQMTQSPSSLSASVGDRVTITCKASDHINNWLAWYQQKPGQAPKLLIYGATTLETGVPSRFSGSGSGTDYTLTISSLQPEDFATYYCQQSWNTPWTFGQGTKLEIKRLEDLKNVFPPEVAVFEPSEAEISHTQKATLVCLATGFYPDHVELSWWVNGKEVHSGVCTDPQPLKEQPALNDSRYCLSSRLRVSATFWQNPRNHFRCQVQFYGLSENDEWTQDRAKPVTQIVSAEAWGRADCGFTSESYQQGVLSATILYEILLGKATLYAVLVSALVLMAMVKRKDSRGRAKRSGSGATNFSLLKQAGDVEENPGPTSMDWIWRILFLVGAATGAHSFEQVQLQQPGAELVKPGASVKMSCKASGYAFSSYWINWMKQKPGQGLEWIGQIYPGDGDTNYNGKFKGRATLTADTSSSTAYMQLSSLTSEDSAVYFCARSITTVVGCAMDYWGQGTSVTVSSTRIQNPDPAVYQLRDSKSSDKSVCLFTDFDSQTNVSQSKDSDVYITDKCVLDMRSMDFKSNSAVAWSNKSDFACANAFNNSIIPEDTFFPSPESSCDVKLVEKSFETDTNLNFQNLSVIGFRILLLKVAGFNLLMTLRLWSSRAKRSGSGVKQTLNFDLLKLAGDVESNPGPSRAHMTEYKPTVRLATRDDVPRAVRTLAAAFADYPATRHTVDPDRHIERVTELQELFLTRVGLDIGKVWVADDGAAVAVWTTPESVEAGAVFAEIGPRMAELSGSRLAAQQQMEGLLAPHRPKEPAWFLATVGVSPDHQGKGLGSAVVLPGVEAAERAGVPAFLETSAPRNLPFYERLGFTVTADVEVPEGPRTWCMTRKPGA
B3: 22169 (protein)
chain: MALPVTALLLPLALLLHAARPEVQLVESGGGLVQPGGSLRLSCAASGFASDYYIIGWFRQAPGKEREGVSCISSRYANTNYADSVKGRFTISRDNAKNTVYLQMNSLKPEDTAVYYCAADTRRYTCPDIATMHRNFDSWGQGTLVTVSSGTGGGGSGGGGSGGGGSEFDIQMTQSPSSLSASVGDRVTITCKASDHINNWLAWYQQKPGQAPKLLIYGATTLETGVPSRFSGSGSGTDYTLTISSLQPEDFATYYCQQSWNTPWTFGQGTKLEIKRLEIQNPDPAVYQLRDSKSSDKSVCLFTDFDSQTNVSQSKDSDVYITDKCVLDMRSMDFKSNSAVAWSNKSDFACANAFNNSIIPEDTFFPSSDVPCDVKLVEKSFETDTNLNFQNLSVIGFRILLLKVAGFNLLMTLRLWSSRAKRSGSGVKQTLNFDLLKLAGDVESNPGPTSATMDWIWRILFLVGAATGAHSGPQVQLQESGGGLAQAGGSLRLSCAASGRTFSMGWFRQAPGKEREFVAAITYSGGSPYYASSVRGRFTISRDNAKNTVYLQMNSLKPEDTAVYYCAANPTYGSDWNAENWGQGTQVTVSSGSGGGGSGGGGSGGGGSFEQVQLQQPGAELVKPGASVKMSCKASGYAFSSYWINWMKQKPGQGLEWIGQIYPGDGDTNYNGKFKGRATLTADTSSSTAYMQLSSLTSEDSAVYFCARSITTVVGCAMDYWGQGTSVTVSSTREDLKNVFPPEVAVFEPSKAEIAHTQKATLVCLATGFYPDHVELSWWVNGKEVHSGVCTDPQPLKEQPALNDSRYCLSSRLRVSATFWQNPRNHFRCQVQFYGLSENDEWTQDRAKPVTQIVSAEAWGRADCGITSASYHQGVLSATILYEILLGKATLYAVLVSALVLMAMVKRKDSRGRAKRSGSGATNFSLLKQAGDVEENPGPSRGHMTEYKPTVRLATRDDVPRAVRTLAAAFADYPATRHTVDPDRHIERVTELQELFLTRVGLDIGKVWVADDGAAVAVWTTPESVEAGAVFAEIGPRMAELSGSRLAAQQQMEGLLAPHRPKEPAWFLATVGVSPDHQGKGLGSAVVLPGVEAAERAGVPAFLETSAPRNLPFYERLGFTVTADVEVPEGPRTWCMTRKPGA
B4: 4725 (protein)
chain: MALPVTALLLPLALLLHAARPDIQMTQSPSSLSASVGDRVTITCKASDHINNWLAWYQQKPGQAPKLLIYGATTLETGVPSRFSGSGSGTDYTLTISSLQPEDFATYYCQQSWNTPWTFGQGTKLEIKRLEDLKNVFPPEVAVFEPSEAEISHTQKATLVCLATGFYPDHVELSWWVNGKEVHSGVCTDPQPLKEQPALNDSRYCLSSRLRVSATFWQNPRNHFRCQVQFYGLSENDEWTQDRAKPVTQIVSAEAWGRADCGFTSESYQQGVLSATILYEILLGKATLYAVLVSALVLMAMVKRKDSRGRAKRSGSGATNFSLLKQAGDVEENPGPTSMDWIWRILFLVGAATGAHSGPQVQLQESGGGLAQAGGSLRLSCAASGRTFSMGWFRQAPGKEREFVAAITYSGGSPYYASSVRGRFTISRDNAKNTVYLQMNSLKPEDTAVYYCAANPTYGSDWNAENWGQGTQVTVSSGSGGGGSGGGGSGGGGSFEQVQLQQPGAELVKPGASVKMSCKASGYAFSSYWINWMKQKPGQGLEWIGQIYPGDGDTNYNGKFKGRATLTADTSSSTAYMQLSSLTSEDSAVYFCARSITTVVGCAMDYWGQGTSVTVSSTRIQNPDPAVYQLRDSKSSDKSVCLFTDFDSQTNVSQSKDSDVYITDKCVLDMRSMDFKSNSAVAWSNKSDFACANAFNNSIIPEDTFFPSPESSCDVKLVEKSFETDTNLNFQNLSVIGFRILLLKVAGFNLLMTLRLWSSRAKRSGSGVKQTLNFDLLKLAGDVESNPGPSRGHMTEYKPTVRLATRDDVPRAVRTLAAAFADYPATRHTVDPDRHIERVTELQELFLTRVGLDIGKVWVADDGAAVAVWTTPESVEAGAVFAEIGPRMAELSGSRLAAQQQMEGLLAPHRPKEPAWFLATVGVSPDHQGKGLGSAVVLPGVEAAERAGVPAFLETSAPRNLPFYERLGFTVTADVEVPEGPRTWCMTRKPGA
modifications: Synthetic Polynucloetide

Key:
MCF7 cells = assay type: cell-based
RAJI cells = assay: JNG assay, co-culture with RAJI cells; assay type: cell-based; conditions: JNG cells expressing construct, co-culture with Raji
Procedure, shortened: (§1)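 Jurkat NFAT-GFP (JNG) cells stably transduced with SARs by lentivirus, with drug selection where the construct carried a resistance gene, then co-cultured with target cells at E:T ~1:2 for ~4–18 h. % GFP-positive cells measured by FACS against parental JNG; +/- to 5+ correspond to ~5–50% GFP-positive.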

L363-CD38-KO = assay: JNG NFAT-GFP assay, co-culture with L363-CD38-KO cells; assay type: cell-based
RS;411 = assay: JNG assay, co-culture with RS;411 cells; assay type: cell-based; conditions: co-culture with RS411
Procedure, shortened: as §1

L363 cells = assay: JNG assay, co-culture with L363 cells; assay type: cell-based; conditions: co-culture with L363
Procedure, shortened: as §1

RAJI-CD19-KO cells = assay: JNG assay, co-culture with RAJI-CD19-KO cells; assay type: cell-based; conditions: co-culture with Raji-CD19-KO
Procedure, shortened: as §1

U-87 MG = assay: JNG NFAT-GFP assay, co-culture with U-87 MG cells; assay type: cell-based
[1] = system: Daudi cells expressing luciferase; assay: Daudi-luciferase i.p. model in NSG mice, CD16 SAR-T plus rituximab; assay type: in vivo; conditions: rituximab plus 1 × 10^7 SAR-T cells, IL-2, NSG mice
Protocol: Use of universal SAR-T cells expressing CD16 as the antigen binding domain. Daudi cells expressing luciferase are injected intraperitoneally (i.p.; 0.3 × 10^6 cells/mouse) in NSG mice (Jackson Laboratory). Some mice receive rituximab ([…]) i.p. Human T cells (1 × 10^7) expressing CD8SP-hu-mROO5-1-vL-[hTCRb-S57C]-F-P2A-IgSP-Apa-CD16-V158-v2-G4Sx3v2-hu-mROO5-1-vH-[hTCRa-T48C] (SEQ ID NO: 4725) SAR are injected four days after Daudi inoculation. Control mice receive tissue culture medium instead of rituximab or T cells. Rituximab injection is repeated weekly for 4 weeks, with no further T lymphocyte injection. All mice receive intraperitoneal injections of 1,000-2,000 IU of IL-2 twice a week for 4 weeks.

Row | Molecule | NFAT-GFP ASSAY: Raji (RAJI cells) | NFAT-GFP ASSAY: RS411 (RS;411) | NFAT-GFP ASSAY: Raji-CD19-KO (RAJI-CD19-KO cells) | further results
1 | B1 | – | – | – | NFAT-GFP ASSAY: MCF-7 (MCF7 cells): did not show GFP induction
2 | B2 | 3+ (refer to approximately 5%, 10%, 20%, 30%, 40% and 50% GFP positive cells) | 2+ (refer to approximately 5%, 10%, 20%, 30%, 40% and 50% GFP positive cells) | 2+ (refer to approximately 5%, 10%, 20%, 30%, 40% and 50% GFP positive cells) | NFAT-GFP ASSAY: L363-CD38-KO (L363-CD38-KO): 2+ (refer to approximately 5%, 10%, 20%, 30%, 40% and 50% GFP positive cells); NFAT-GFP ASSAY: L363 (L363 cells): 2+ (refer to approximately 5%, 10%, 20%, 30%, 40% and 50% GFP positive cells)
3 | B3 | 3+ (refer to approximately 5%, 10%, 20%, 30%, 40% and 50% GFP positive cells) | 2+ (refer to approximately 5%, 10%, 20%, 30%, 40% and 50% GFP positive cells) | 4+ (refer to approximately 5%, 10%, 20%, 30%, 40% and 50% GFP positive cells) | NFAT-GFP ASSAY: U-87 MG (U-87 MG): 3+ (refer to approximately 5%, 10%, 20%, 30%, 40% and 50% GFP positive cells)
4 | B4 | – | – | – | tumor growth, Daudi-luciferase i.p. [1]: reduced tumor growth
